Source: patent US10870874B2, “Binding fusion proteins, binding fusion protein-drug conjugates, XTEN-drug conjugates and methods of making and using same” (Amunix Pharmaceuticals, Inc., priority 2010, dated 2020)
Each block holds one molecule with its values, some of them ahead of it.

How the values were obtained:
human CD40 = human CD40 (Homo sapiens, UniProt P25942); experiment: CD40 binding ELISA with cleared lysates of aCD40-XTEN; details: from EC50 of lysate dilution and an estimate concentration of 10 μM in the lysate
human CD40, sequence (P25942 21-193 limits assumed): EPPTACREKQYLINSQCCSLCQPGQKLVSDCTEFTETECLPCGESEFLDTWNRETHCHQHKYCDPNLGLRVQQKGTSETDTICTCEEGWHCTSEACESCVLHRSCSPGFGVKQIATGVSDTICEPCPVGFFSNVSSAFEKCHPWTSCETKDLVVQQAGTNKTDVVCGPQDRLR
Experimental: Two aCD40-XTEN constructs, AC384 and AC385, were expressed by growing a culture to saturation in 2×YT and then using this culture to inoculate a 500 ml flask of 2×YT. This second flask was grown to an OD600 of between 0.6 and 1.0 at 37° C., transferred to 26° C., and induced with 1 mM IPTG. The induction was left overnight and cell paste harvested by centrifugation the flowing morning. These pellets were stored as EP220 and EP221. Small samples were taken from the pellet, lysed using bugbuster, and clarified using a microcentrifuge. These cleared lysates were the serially diluted by a factor of three in PBST, for using in a binding ELISA. The ELISA was performed as follows: The plates were coated with either 100 ng/well of human CD40-Fc fusion for 1 hour at 37° C., blocked with 3% BSA in PBS for one hour at 37° C., bound by adding the AC384 or AC385 dilution series to the plate and incubating for one hour at room temperature, washed 3 times with PBST, detected with biotinylated anti-XTEN antibody for one hour at room temperature, washed three times with PBST, amplified with streptavidin-HRP for one hour at room temperature, washed three times with PBST, developed with TMB substrate and read at 405 nm using a plate reader. The ELISA values were plotted versus dilution of lysate plotted on a log scale and an EC50 value determined, with nearly identical results (FIG. 27).

[1] = In vivo stability of GFP-XTEN in plasma samples after injection; parameters: species or system cynomolgus monkeys; details: samples up to 7 days after injection
Experimental: (§1) FIG. 16A-FIG. 16C show an SDS-PAGE gel of samples from a stability study of the fusion protein of XTEN_AE864 fused to the N-terminus of GFP.
(§2) A fusion protein containing XTEN_AE864 fused to the N-terminus of GFP was incubated in monkey plasma and rat kidney lysate for up to 7 days at 37° C. Samples were withdrawn at time 0, Day 1 and Day 7 and analyzed by SDS PAGE followed by detection using Western analysis and detection with antibodies against GFP as shown in FIG. 16A-FIG. 16C. […] The in vivo stability of the fusion protein was tested in plasma samples wherein the GFP_AE864 was immunoprecipitated and analyzed by SDS PAGE as described above.

[2] = Stability of XTEN_AE864-GFP incubated in monkey plasma; assay type: in vitro ADME, cynomolgus monkey; details: 37° C., 7 days
Experimental: as §1, §2

[3] = Stability of XTEN_AE864-GFP incubated in rat kidney lysate; assay type: in vitro ADME; details: 37° C., over 3 days
Experimental: as §1
as §2, with “Samples” for “A fusion protein containing XTEN_AE864 fused to the N-terminus of GFP was incubated in monkey plasma and rat kidney lysate for up to 7 days at 37° C. Samples”

human IL6R = biological target: T1, human IL6R (Homo sapiens, UniProt P08887); experiment: IL6R binding ELISA of aIL6R-XTEN; details: 100 ng/well human IL6R
T1 sequence (P08887 20-468): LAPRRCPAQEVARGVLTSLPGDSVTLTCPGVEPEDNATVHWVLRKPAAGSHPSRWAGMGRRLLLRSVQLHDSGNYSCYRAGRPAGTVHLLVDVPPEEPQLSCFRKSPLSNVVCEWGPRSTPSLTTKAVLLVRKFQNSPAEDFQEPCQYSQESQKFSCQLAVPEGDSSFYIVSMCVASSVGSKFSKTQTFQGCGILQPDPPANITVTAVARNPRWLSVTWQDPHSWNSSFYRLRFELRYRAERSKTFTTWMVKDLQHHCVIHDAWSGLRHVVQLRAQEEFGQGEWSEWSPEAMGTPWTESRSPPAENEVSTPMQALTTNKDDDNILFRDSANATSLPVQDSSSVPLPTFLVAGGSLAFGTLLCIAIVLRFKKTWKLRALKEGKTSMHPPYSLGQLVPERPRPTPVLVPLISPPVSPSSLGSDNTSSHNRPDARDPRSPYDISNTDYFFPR
Experimental: E. coli from a single colony of AC342 was grown to saturation in 2×YT media. 10 mL of this saturated overnight culture was used to inoculate a 500 ml of 2×YT media and this culture was grown to an OD600 between 0.4 and 0.5 at 37° C., transferred to 26° C. and induced with 1 mM IPTG. The culture was then grown overnight (15-17 hours) and harvested by centrifugation at 10,000 rpm in a Sorvall SLA-3000 rotor. The pellets were stored until use at −80° C. Cell paste was resuspended in 25 ml of lysis buffer (20 mM sodium acetate, 50 mM sodium chloride, pH 4.5), lysed by sonication, and clarified by spinning at 10,000 rpm at 4° C. in a Sorvall SS34 rotor. The samples were further acidified by the addition of acetic acid. […] IL6R binding was assessed in an ELISA as follows: the plates were coated with either 100 ng/well of human IL6R for 1 hour at 37° C., blocked with 3% BSA in PBS for one hour at 37° C., bound by adding the AC342 dilution series to the plate and incubating for one hour at room temperature, washed 3 times with PBST, detected with biotinylated anti-XTEN antibody for one hour at room temperature, washed three times with PBST, amplified with streptavidin-HRP for one hour at room temperature, washed three times with PBST, developed with TMB substrate and read at 405 nm using a plate reader.

B1: AC385: anti-CD40-XTEN_AE864 scFv binding fusion protein (protein)
chain: QQKPGQAPRLLIYYASHSISGIPARFSGSGSGTDFTLTISSLEPEDFAVYYCQHGHSYPWTFGGGTKVEIKTGSGEGSEGEGGGEGSEGEGSGEGGEGEGSGTQVQLVQSGSELKKPGASVKVSCKASGYAFTTTGMQWVRQAPGQGLEWMGWINTHSGVPKYVEDFKGRFVFSLDTSVSTAYLQISSLKAEDTAVYYCARSGNGNYDLAYFKYWGQGTLVTVSSGGSPAGSPTSTEEGTSESATPESGPGTSTEPSEGSAPGSPAGSPTSTEEGTSTEPSEGSAPGTSTEPSEGSAPGTSESATPESGPGSEPATSGSETPGSEPATSGSETPGSPAGSPT
Kd (human CD40): ~50 nM

B2: XTEN_AE864: fusion protein containing XTEN_AE864 fused to the N-terminus of GFP (protein)
chain: MAEPAGSPTSTEEGTPGSGTASSSPGSSTPSGATGSPGASPGTSSTGSPGGASASCAPSTGGGSPAGSPTSTEEGTSESATPESGPGTSTEPSEGSAPGSPAGSPTSTEEGTSTEPSEGSAPGTSTEPSEGSAPGTSESATPESGPGSEPATSGSETPGSEPATSGSETPGSPAGSPTSTEEGTSESATPESGPGTSTEPSEGSAPGTSTEPSEGSAPGSPAGSPTSTEEGTSTEPSEGSAPGTSTEPSEGSAPGTSESATPESGPGTSTEPSEGSAPGTSESATPESGPGSEPATSGSETPGTSTEPSEGSAPGTSTEPSEGSAPGTSESATPESGPGTSESATPESGPGSPAGSPTSTEEGTSESATPESGPGSEPATSGSETPGTSESATPESGPGTSTEPSEGSAPGTSTEPSEGSAPGTSTEPSEGSAPGTSTEPSEGSAPGTSTEPSEGSAPGTSTEPSEGSAPGSPAGSPTSTEEGTSTEPSEGSAPGTSESATPESGPGSEPATSGSETPGTSESATPESGPGSEPATSGSETPGTSESATPESGPGTSTEPSEGSAPGTSESATPESGPGSPAGSPTSTEEGSPAGSPTSTEEGSPAGSPTSTEEGTSESATPESGPGTSTEPSEGSAPGGASASCAPSTGGGSEPATSGSETPGTSESATPESGPGSEPATSGSETPGSPAGSPTSTEEGTSTEPSEGSAPGSEPATSGSETPGSEPATSGSETPGSEPATSGSETPGTSTEPSEGSAPGTSESATPESGPGSEPATSGSETPGTSTEPSEGSAPG
degradation in vivo [1]: very few signs of degradation | degradation in plasma [2]: negligible signs of degradation | degradation in rat kidney lysate [3]: rapidly degraded

Further lines, results first:

Kd (human CD40): ~50 nM
B3: AC384: anti-CD40-XTEN_AE864 scFv binding fusion protein (protein)
chain: QQKPGQAPRLLIYYASHSISGIPARFSGSGSGTDFTLTISSLEPEDFAVYYCQHGHSYPWTFGGGTKVEIKTGSGEGSEGEGGGEGSEGEGSGEGGEGEGSGTQVQLVQSGSELKKPGASVKVSCKASGYAFTTTGMQWVRQAPGQGLEWMGWINTHSGVPKYVEDFKGRFVFSLDTSVSTAYLQISSLKAEDTAVYYCARSGNGNYDLAYFKYWGQGTLVTVSSGGSPAGSPTSTEEGTSESATPESGPGTSTEPSEGSAPGSPAGSPTSTEEGTSTEPSEGSAPGTSTEPSEGSAPGTSESATPESGPGSEPATSGSETPGSEPATSGSETPGSPAGSP

EC50 (human IL6R): 5 nM
B4: AC342: aIL6R-XTEN binding fusion protein construct (protein)
chain: YQQKPGKAPKLLIYYTSRLHSGVPSRFSGSGSGTDFTFTISSLQPEDIATYYCQQGNTLPYTFGQGTKVEIKTGSGEGSEGEGGGEGSEGEGSGEGGEGEGSGSQVQLQESGPGLVRPSQTLSLTCTVSGYSITSDHAWSWVRQPPGRGLEWIGYISYSGITTYNPSLKSRVTMLRDTSKNQFSLRLSSVTAADTAVYYCARSLARTTAMDYWGQGSLVTVSSGSPGSPAGSPTSTEEGTSESATPESGPGTSTEPSEGSAPGSPAGSPTSTEEGTSTEPSEGSAPGTSTEPSEGSAPGTSESATPESGPGSEPATSGSETPGSEPATSGSETPGSPAGSPT
